One data set deals with dCas9 D10A;H840A (UniProt Q99ZW2). Put plainly: single-molecule TIRF. To be noted: 3'-biotin on strand 2, SPR: 25 mM Tris-HCl pH 7.6, 50 mM NaCl, 5 mM MgCl2, 0.25 mM DTT, 0.2 mM EDTA, 0.005% P20, 20 C, single-molecule: 25 mM Tris-HCl pH 7.9, 10 mM Mg acetate.
Data set [1] deals with DnaB helicase (Escherichia coli) (UniProt P0ACB0).
Data set [2] has the same target. The source holds these as a separate data set.
The next data set addresses DnaB (Escherichia coli) (UniProt P0ACB0). Put plainly: SPR. The following applies: cited from earlier work.

DnaB helicase (Escherichia coli), sequence (P0ACB0 whole entry): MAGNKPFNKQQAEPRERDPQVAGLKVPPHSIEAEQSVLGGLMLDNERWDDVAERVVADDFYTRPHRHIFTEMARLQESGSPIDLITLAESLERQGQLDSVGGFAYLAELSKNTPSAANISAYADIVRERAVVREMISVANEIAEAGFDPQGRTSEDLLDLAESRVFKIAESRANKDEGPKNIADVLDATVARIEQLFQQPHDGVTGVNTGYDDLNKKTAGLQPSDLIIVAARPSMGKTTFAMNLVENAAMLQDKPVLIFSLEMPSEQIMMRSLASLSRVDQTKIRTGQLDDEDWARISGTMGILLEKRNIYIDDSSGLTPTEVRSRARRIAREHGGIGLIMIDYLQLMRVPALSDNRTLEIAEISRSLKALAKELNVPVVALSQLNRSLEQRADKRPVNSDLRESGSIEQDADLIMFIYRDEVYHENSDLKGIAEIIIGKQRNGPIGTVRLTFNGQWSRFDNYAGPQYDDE
His6-Rep WT, sequence (P09980 whole entry): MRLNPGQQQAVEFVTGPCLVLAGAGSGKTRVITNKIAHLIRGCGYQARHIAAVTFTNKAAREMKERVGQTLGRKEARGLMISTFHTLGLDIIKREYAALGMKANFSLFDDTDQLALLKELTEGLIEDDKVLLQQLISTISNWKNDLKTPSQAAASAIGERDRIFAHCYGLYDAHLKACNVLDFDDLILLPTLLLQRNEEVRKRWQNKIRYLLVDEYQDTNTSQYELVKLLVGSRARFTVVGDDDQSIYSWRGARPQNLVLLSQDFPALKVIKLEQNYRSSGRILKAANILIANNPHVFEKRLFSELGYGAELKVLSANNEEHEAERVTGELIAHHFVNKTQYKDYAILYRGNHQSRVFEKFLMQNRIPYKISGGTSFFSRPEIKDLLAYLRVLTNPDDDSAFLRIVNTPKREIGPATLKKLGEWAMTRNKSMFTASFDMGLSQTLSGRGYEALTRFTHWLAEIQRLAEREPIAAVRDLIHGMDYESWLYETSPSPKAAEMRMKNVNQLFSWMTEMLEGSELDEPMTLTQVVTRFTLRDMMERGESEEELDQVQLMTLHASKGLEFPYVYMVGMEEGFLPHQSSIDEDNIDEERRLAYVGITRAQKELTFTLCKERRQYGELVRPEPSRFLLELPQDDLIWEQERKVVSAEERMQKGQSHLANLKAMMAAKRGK
Rep, sequence (P09980 whole entry): as above
DnaB (Escherichia coli), sequence (P0ACB0 2-471): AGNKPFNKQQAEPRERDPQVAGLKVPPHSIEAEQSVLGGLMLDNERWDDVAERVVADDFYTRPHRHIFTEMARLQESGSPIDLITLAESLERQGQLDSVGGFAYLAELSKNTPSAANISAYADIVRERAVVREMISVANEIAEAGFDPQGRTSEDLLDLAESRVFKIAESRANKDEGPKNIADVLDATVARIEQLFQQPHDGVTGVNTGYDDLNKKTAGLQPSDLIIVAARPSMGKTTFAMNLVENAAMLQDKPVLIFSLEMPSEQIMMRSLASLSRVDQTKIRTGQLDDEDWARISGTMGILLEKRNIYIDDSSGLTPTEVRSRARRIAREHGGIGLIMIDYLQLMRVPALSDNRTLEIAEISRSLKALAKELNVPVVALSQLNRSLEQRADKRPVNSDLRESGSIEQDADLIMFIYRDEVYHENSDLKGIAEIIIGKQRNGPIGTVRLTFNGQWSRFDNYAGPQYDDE
His6-Rep ΔC33, sequence (P09980 1-640, stated change not applied): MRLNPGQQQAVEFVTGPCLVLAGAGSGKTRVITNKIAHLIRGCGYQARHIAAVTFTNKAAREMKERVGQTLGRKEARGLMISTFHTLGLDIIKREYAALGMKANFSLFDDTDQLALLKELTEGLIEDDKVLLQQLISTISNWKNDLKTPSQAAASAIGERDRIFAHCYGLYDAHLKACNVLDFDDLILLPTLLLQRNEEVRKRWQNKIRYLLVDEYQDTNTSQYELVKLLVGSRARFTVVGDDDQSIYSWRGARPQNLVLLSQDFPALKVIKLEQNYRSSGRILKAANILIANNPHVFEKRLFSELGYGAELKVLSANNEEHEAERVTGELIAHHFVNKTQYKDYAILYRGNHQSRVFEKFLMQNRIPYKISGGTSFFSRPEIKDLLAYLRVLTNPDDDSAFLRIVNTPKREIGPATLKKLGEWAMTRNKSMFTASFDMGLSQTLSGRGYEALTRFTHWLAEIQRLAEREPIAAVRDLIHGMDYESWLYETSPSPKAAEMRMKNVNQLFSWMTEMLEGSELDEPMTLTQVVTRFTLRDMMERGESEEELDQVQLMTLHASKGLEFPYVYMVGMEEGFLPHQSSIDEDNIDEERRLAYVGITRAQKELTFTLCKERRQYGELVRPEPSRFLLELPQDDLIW

Substance “CACATGCTATGAGCTGTTGCAATCTCTCGTACAATTAATAGACTGGATGGTGGATGACAAAGCTCTACACTAGATACTCACAC (double strand) [gRNA20 / 83-mer target]” displayed a binding signal (min (mean binding lifetime)) in the data set with dCas9 D10A;H840A of 1.

The substance “CACATGCTATGAGCTGTTGCAATCTCTCGTACAATTAATAGACTGGATGGTGGATGACAAAGCTCTACACTAGATACTCACAC (double strand) [gRNA40 / 83-mer target]” returned a binding signal (min (mean binding lifetime)) with dCas9 D10A;H840A of 1.

“CACATGCTATGAGCTGTTGCAATCTCTCGTACAATTAATAGACTGGATGGTGGATGACAAAGCTCTACACTAGATACTCACAC (double strand) [gRNA60 / 83-mer target]” returned a binding signal (min (mean binding lifetime)) with dCas9 D10A;H840A of 8.3. Take “CACATGCTATGAGCTGTTGCAATCTCTCGTACAATTAATAGACTGGATGGTGGATGACAAAGCTCTACACTAGATACTCACAC (double strand) [gRNA80 / 83-mer target]”: the binding signal (min (mean binding lifetime)) with dCas9 D10A;H840A turned out to be 8.6. Consider “His6-Rep WT (from UniProt P09980 1-673) (enzyme)”, for which the mean total DNA product length after 3 min in the single-molecule stalled rolling-circle replication assay (template pre-incubated with the dCas9-cgRNA1-Atto647 roadblock), 20 nM Rep WT in data set [1] was determined as 65 kbp. In data set [2], the replication efficiency in the single-molecule stalled rolling-circle replication assay (dCas9-cgRNA1-Atto647 roadblock), 20 nM Rep WT was 2%. “His6-Rep ΔC33 (from UniProt P09980 1-640) (domain or fragment)” had a mean total DNA product length after 3 min in the single-molecule stalled rolling-circle replication assay (template pre-incubated with the dCas9-cgRNA1-Atto647 roadblock), 20 nM Rep ΔC33 in data set [1] of 2 kbp.

As to Rep (from UniProt P09980), the Kd – broadly, the equilibrium constant for the complex coming apart – with DnaB (Escherichia coli) is 90 nM.

These data come from publication PMC10123100, “Single-molecule visualization of stalled replication-fork rescue by the Escherichia coli Rep helicase” (Nucleic Acids Research, 2023).
